The results in this text go back to article PMC3289641.

This assay addresses GST-fused core106 (HCV core, residues 1-106) (hepatitis C virus (genotype not stated)). The assay is described as follows: AlphaScreen or HTRF; GST-core106 and Flag-core106 at 150 nM each; glutathione donor beads and anti-Flag acceptor beads 20 ug/ml; room temperature; protein buffer 100 mM HEPES pH 7.5, 1 mM EDTA, 5 mM DTT, 0.1% CHAPS, 10% glycerol; untagged core106 added as reference inhibitor.

For the substance “HCV core106 (1-106 residues), untagged core106 domain (domain or fragment)”, the percent inhibition of core dimerization was found to be 91%.
